For one molecule, Kd results are on record in US20170209564A1.

In the test the target is s127H1-t2 (Influenza A virus H1N1 A/Brisbane/59/2007). The note with it: remark: other sources report otherwise.

B1: monoclonal antibody CR6261 (antibody, V domains shown)
VH: EVQLVESGAEVKKPGSSVKVSCKASGGPFRSYAISWVRQAPGQGPEWMGGIIPIFGTTKYAPKFQGRVTITADDFAGTVYMELSSLRSEDTAMYYCAKHMGYQVRETMDVWGKGTTVTVSS
VL: QSVLTQPPSVSAAPGQKVTISCSGSSSNIGNDYVSWYQQLPGTAPKLLIYDNNKRPSGIPDRFSGSKSGTSATLGITGLQTGDEANYYCATWDRRPTAYVVFGGGTKLTVLG
In turn, B1 gave a Kd of 3.5 nM.

For orientation: Kd means the equilibrium constant for the complex coming apart.
